We go through one molecule from doi:10.1101/2023.01.21.525003 (bioRxiv, 2023).

This assay deals with Gluc-LHCGRv4 (Gaussia luciferase fused to the N-terminus of the luteinizing hormone/chorionic gonadotropin … (human, UniProt P22888 27-699)). The experiment in a line: FRET or BRET.
Gluc-LHCGRv4 (Gaussia luciferase fused to the N-terminus of the luteinizing hormone/chorionic gonadotropin …, sequence (P22888 27-699): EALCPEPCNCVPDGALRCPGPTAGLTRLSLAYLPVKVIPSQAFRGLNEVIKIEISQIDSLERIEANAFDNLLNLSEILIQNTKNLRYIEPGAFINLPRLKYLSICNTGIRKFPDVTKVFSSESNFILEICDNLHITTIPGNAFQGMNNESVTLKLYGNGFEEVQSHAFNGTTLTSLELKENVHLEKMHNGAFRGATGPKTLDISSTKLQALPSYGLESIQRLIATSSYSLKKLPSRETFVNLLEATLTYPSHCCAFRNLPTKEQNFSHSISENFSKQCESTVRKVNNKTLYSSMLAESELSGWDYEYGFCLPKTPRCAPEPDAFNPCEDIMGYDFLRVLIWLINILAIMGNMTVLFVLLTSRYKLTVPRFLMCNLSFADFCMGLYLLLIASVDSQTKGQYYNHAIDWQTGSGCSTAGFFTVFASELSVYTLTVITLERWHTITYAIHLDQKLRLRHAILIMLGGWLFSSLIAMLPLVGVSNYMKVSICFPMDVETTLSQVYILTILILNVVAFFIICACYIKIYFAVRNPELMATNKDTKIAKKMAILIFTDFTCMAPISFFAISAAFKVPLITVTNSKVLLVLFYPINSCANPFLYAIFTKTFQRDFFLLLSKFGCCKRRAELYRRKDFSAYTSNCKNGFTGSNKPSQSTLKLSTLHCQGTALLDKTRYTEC

B1: LHB^WT-eGFP/CGA (luteinizing hormone: LH beta subunit fused to eGFP, co-expressed with the common glycoprotein alpha subunit) (complex)
chain 1: SREPLRPWCHPINAILAVEKEGCPVCITVNTTICAGYCPTMMRVLQAVLPPLPQVVCTYRDVRFESIRLPGCPRGVDPVVSFPVALSCRCGPCRRSTSDCGGPKDHPLTCDHPQLSGLLFL
chain 2: not shown
Regarding B1, the “BRET ratio, fold over stimulation with unlabeled hormone” value stood at 4 fold.
